Two substances from article PMC4363203 can be followed below.

The target of the assay is centromere protein A (CENP-A), histone H3 variant (human (endogenous in HcoEpiC, HeLa and SW480)) (UniProt P49450). Nature of the assay: co-IP; sequential native CENP-A IP of the chromatin left unbound by the CENP-B IP ('ectopic CENP-A'); SW480 cells; quantitative fluorescent western blot, background-corrected, input-adjusted ratio to the CENP-B IP. Background: Immunoblotting shows a protein as a band on a membrane.
UniProt P49450, sequence (P49450 whole entry, change not shown): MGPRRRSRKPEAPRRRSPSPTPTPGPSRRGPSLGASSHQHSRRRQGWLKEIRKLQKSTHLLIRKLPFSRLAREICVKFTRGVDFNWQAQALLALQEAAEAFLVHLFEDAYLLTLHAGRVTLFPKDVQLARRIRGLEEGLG

As for “ATRX, transcription-coupled histone chaperone (from UniProt P46100 1-2492) (natural protein)”, the ATRX fold enrichment (Seq. CpA IP/CpB IP) was 0.81 fold.

For “canonical histone H3 (from UniProt P68431 1-136) (natural protein)”, the H3 fold enrichment (Seq. CpA IP/CpB IP) worked out at 2.91 fold.
